Reference: publication PMC8667150

Assays:
[1] = Western blot of transfected AR42J cells; details: glycan lost; control: wild type
[2] = immunofluorescence, anti-myc and anti-calnexin, AR42J cells; details: glycan lost; control: wild type

B1: somatostatin receptor type 2 (SSTR2): N9Q (protein)
parent chain: MELTSEQFNGSQVWIPSPFDLNGSLGPSNGSNQTEPYYDMTSNAVLTFIYFVVCVVGLCGNTLVIYVILRYAKMKTITNIYILNLAIADELFMLGLPFLAMQVALVHWPFGKAICRVVMTVDGINQFTSIFCLTVMSIDRYLAVVHPIKSAKWRRPRTAKMINVAVWGVSLLVILPIMIYAGLRSNQWGRSSCTINWPGESGAWYTGFIIYAFILGFLVPLTIICLCYLFIIIKVKSSGIRVGSSKRKKSEKKVTRMVSIVVAVFIFCWLPFYIFNVSSVSVAISPTPALKGMFDFVVILTYANSCANPILYAFLSDNFKKSFQNVLCLVKVSGAEDGERSDSKQDKSRLNETTETQRTLLNGDLQTSI
expression_or_secretion [1]: decreases | localisation_or_trafficking [2]: changes
